Data set [1] relates to HeLa Kyoto. Put plainly: solubility in G1/S (NP-40 vs SDS abundance) (log2 ratio); higher = more soluble. The conditions noted are these: cell cycle stage: G1/S.
In data set [2] the test system is HeLa Kyoto. Put plainly: thermal stability score vs G1/S (z-score of summed log2 fold changes over temperatures); higher = more thermally stable than in G1/S.
Data set [3] concerns HeLa Kyoto. Kind of data set: solubility change mitosis vs G1/S (difference of NP-40 vs SDS log2 ratios) (log2 ratio difference); higher = more soluble in mitosis.
Data set [4] relates to HeLa Kyoto. Put plainly: melting temperature (median over replicates), in situ; higher = more thermally stable.
The mark [5] stands for this setting: cell cycle stage: early G1 (4.5 h after nocodazole release).
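For melting temperature (median over replicates), in situ in this document: HeLa Kyoto cells synchronized by double thymidine or nocodazole block, proteins quantified by TMT10plex mass spectrometry, three independent biological replicates.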
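For solubility change mitosis vs G1/S (difference of NP-40 vs SDS log2 ratios) in this document: synchronized HeLa Kyoto cells (double thymidine block for G1/S, nocodazole release for mitosis), protein amounts in NP-40 versus SDS lysates quantified by mass spectrometry, three biological replicates.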
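For solubility in G1/S (NP-40 vs SDS abundance) in this document: HeLa Kyoto cells arrested at G1/S by double thymidine block, proteins quantified by TMT10plex mass spectrometry in mild NP-40 versus SDS extracts, three biological replicates.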
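For thermal stability score vs G1/S (z-score of summed log2 fold changes over temperatures) in this document: synchronized HeLa Kyoto cells, proteins quantified by TMT10plex mass spectrometry, three biological replicates, mitosis taken 0.5 h after nocodazole release, G1/S directly after double thymidine block.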

RHOB, sequence (chain, as listed by the source): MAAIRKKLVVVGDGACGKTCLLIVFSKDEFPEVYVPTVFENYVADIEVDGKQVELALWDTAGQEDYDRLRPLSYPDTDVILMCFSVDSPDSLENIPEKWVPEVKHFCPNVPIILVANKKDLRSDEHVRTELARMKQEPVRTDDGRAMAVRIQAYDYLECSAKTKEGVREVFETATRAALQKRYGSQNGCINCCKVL

With “MAGAGGGNDIQWCFSQVKGAVDDDVAEADIISTVEFNHSGELLATGDKGGRVVIFQQEQENKIQSHSRGEYNVYSTFQSHEPEFDYLKSLEIEEKINKIRWLPQKNAAQFLLSTNDKTIKLWKISERDKRPEGYNLKEEDGRYRDPTTVTTLRVPVFRPMDLMVEASPRRIFANAHTYHINSISINSDYETYLSADDLRINLWHLEITDRSFNIVDIKPANMEELTEVITAAEFHPNSCNTFVYSSSKGTIRLCDMRASALCDRHSKLFEEPEDPSNRSFFSEIISSISDVKFSHSGRYMMTRDYLSVKIWDLNMENRPVETYQVHEYLRSKLCSLYENDCIFDKFECCWNGSDSVVMTGSYNNFFRMFDRNTKRDITLEASRENNKPRTVLKPRKVCASGKRKKDEISVDSLDFNKKILHTAWHPKENIIAVATTNNLYIFQDKVN [PPP2R2A]”, in the data set with HeLa Kyoto [1], the “solubility in G1/S (log2)” value was -0.0929. Besides, the thermal stability score in the data set with HeLa Kyoto [2] (setting [5]) was -0.543; in the data set on HeLa Kyoto [2] (cell cycle stage: mitosis), -3.42. The “solubility change mitosis (log2)” value in the data set on HeLa Kyoto [3] was -0.194. Moreover, the melting temperature was 54.7 °C in the data set with HeLa Kyoto [4] (cell cycle stage: G1/S) and 54.2 °C in the data set with HeLa Kyoto [4] (cell cycle stage: mitosis).

For the substance “MGALVIRGIRNFNLENRAEREISKMKPSVAPRHPSTNSLLREQISLYPEVKGEIARKDEKLLSFLKDVYVDSKDPVSSLQVKAAETCQEPKEFRLPKDHHFDMINIKSIPKGKISIVEALTLLNNHKLFPETWTAEKIMQEYQLEQKDVNSLLKYFVTFEVEIFPPEDKKAIRSK [NDUFAF4]”, in the data set on HeLa Kyoto [1], the “solubility in G1/S (log2)” value was 0.314. Also, the thermal stability score is -2.2 in the data set with HeLa Kyoto [2] (setting [5]) and -2.98 with HeLa Kyoto [2] (cell cycle stage: mitosis). Besides, in the data set on HeLa Kyoto [3], the “solubility change mitosis (log2)” value was -0.0449. Further, the melting temperature with HeLa Kyoto [4] (cell cycle stage: G1/S) was 50.4 °C; with HeLa Kyoto [4] (cell cycle stage: mitosis), 54.2 °C.

As for “MRPVRLMKVFVTRRIPAEGRVALARAADCEVEQWDSDEPIPAKELERGVAGAHGLLCLLSDHVDKRILDAAGANLKVISTMSVGIDHLALDEIKKRGIRVGYTPDVLTDTTAELAVSLLLTTCRRLPEAIEEVKNGGWTSWKPLWLCGYGLTQSTVGIIGLGRIGQAIARRLKPFGVQRFLYTGRQPRPEEAAEFQAEFVSTPELAAQSDFIVVACSLTPATEGLCNKDFFQKMKETAVFINISRGDVVNQDDLYQALASGKIAAAGLDVTSPEPLPTNHPLLTLKNCVILPHIGSATHRTRNTMSLLAANNLLAGLRGEPMPSELKL [GRHPR]”, the “solubility in G1/S (log2)” value in the data set with HeLa Kyoto [1] came out at 0.0329. Also, the figures for the thermal stability score with HeLa Kyoto [2] (setting [5]) and in the data set on HeLa Kyoto [2] (cell cycle stage: mitosis) were 0.108 and 0.371, respectively. Further, the “solubility change mitosis (log2)” value in the data set with HeLa Kyoto [3] was -0.204. Besides, the melting temperature in the data set on HeLa Kyoto [4] (cell cycle stage: G1/S) stood at 54.3 °C; in the data set with HeLa Kyoto [4] (cell cycle stage: mitosis), 55 °C.

In the case of RB1CC1, in the data set with HeLa Kyoto [1], the “solubility in G1/S (log2)” value was -0.0448. Also, the thermal stability score is -0.0649 with HeLa Kyoto [2] (setting [5]) and 0.267 in the data set with HeLa Kyoto [2] (cell cycle stage: mitosis). Also, the “solubility change mitosis (log2)” value in the data set on HeLa Kyoto [3] is -0.219. Besides, the melting temperature turned out to be 51.4 °C in the data set on HeLa Kyoto [4] (cell cycle stage: G1/S) and 50.2 °C with HeLa Kyoto [4] (cell cycle stage: mitosis).

For the substance RHOB, the “solubility in G1/S (log2)” value in the data set on HeLa Kyoto [1] came out at 0.157. For the same substance, the thermal stability score in the data set with HeLa Kyoto [2] (setting [5]) was -0.544; with HeLa Kyoto [2] (cell cycle stage: mitosis) it was -0.587. In the data set on HeLa Kyoto [3], the “solubility change mitosis (log2)” value is -0.114. Moreover, the values for the melting temperature with HeLa Kyoto [4] (cell cycle stage: G1/S) and in the data set with HeLa Kyoto [4] (cell cycle stage: mitosis) were 57.2 °C and 58.2 °C, respectively.

Consider “MAEAMDLGKDPNGPTHSSTLFVRDDGSSMSFYVRPSPAKRRLSTLILHGGGTVCRVQEPGAVLLAQPGEALAEASGDFISTQYILDCVERNERLELEAYRLGPASAADTGSEAKPGALAEGAAEPEPQRHAGRIAFTDADDVAILTYVKENARSPSSVTGNALWKAMEKSSLTQHSWQSLKDRYLKHLRGQEHKYLLGDAPVSPSSQKLKRKAEEDPEAADSGEPQNKRTPDLPEEEYVKEEIQENEEAVKKMLVEATREFEEVVVDESPPDFEIHITMCDDDPPTPEEDSETQPDEEEEEEEEKVSQPEVGAAIKIIRQLMEKFNLDLSTVTQAFLKNSGELEATSAFLASGQRADGYPIWSRQDDIDLQKDDEDTREALVKKFGAQNVARRIEFRKK [TERF2IP]”, for which the “solubility in G1/S (log2)” value in the data set with HeLa Kyoto [1] is 0.503. Also, the thermal stability score worked out at 1.96 in the data set on HeLa Kyoto [2] (setting [5]) and 1.16 in the data set on HeLa Kyoto [2] (cell cycle stage: mitosis). Also, in the data set with HeLa Kyoto [3], the “solubility change mitosis (log2)” value was 0.0568. Moreover, the melting temperature in the data set with HeLa Kyoto [4] (cell cycle stage: G1/S) was 49.8 °C; with HeLa Kyoto [4] (cell cycle stage: mitosis), 52.4 °C.
